Columns and labels:
[1] = biological target: T1, murine SIRT3 recombinant protein (mouse); assay: SPR; SIRT3 immobilised on a carboxyl sensor chip; ATP5O diluted in running buffer and injected from low to high concentrations; kinetics analysed with Trace Drawer
T1 sequence (Q8R104 whole entry, looked up): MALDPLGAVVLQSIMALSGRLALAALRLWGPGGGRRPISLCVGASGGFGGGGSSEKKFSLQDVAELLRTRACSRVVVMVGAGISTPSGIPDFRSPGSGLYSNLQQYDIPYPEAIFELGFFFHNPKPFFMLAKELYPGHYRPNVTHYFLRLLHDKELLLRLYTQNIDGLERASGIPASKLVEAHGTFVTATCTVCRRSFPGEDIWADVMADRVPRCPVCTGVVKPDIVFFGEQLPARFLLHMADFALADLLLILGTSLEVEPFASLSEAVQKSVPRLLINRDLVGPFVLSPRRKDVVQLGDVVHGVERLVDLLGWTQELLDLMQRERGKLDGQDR

[2] = biological target: T1, murine SIRT3 recombinant protein (mouse); assay: ITC; Nano ITC (TA Instruments); ATP5O titrated into a SIRT3-containing solution at 25 °C; NanoAnalyze

B1: murine ATP5O recombinant protein (natural protein)
chain: FAKLVRPPVQVYGIEGRYATALYSAASKEKKLDQVEKELLRVGQLLKDPKVSLAVLNPYIKRTVKVKSLNDITKREKFSPLTANLMNLLAENGRLGNTQGIISAFSTIMSVHRGEVPCTVTTASPLDDAVLSELKTVLKSFLSPNQILKLEIKTDPSIMGGMIVRIGEKYVDMSAKSKIQKLSKAMREML
Kd [1]: 0.0653 nM | koff [1]: 5.54e-08 s⁻¹ | kon [1]: 850 M⁻¹ s⁻¹ | Kd [2]: 1310 nM

— publication PMC12613623
